The labels stand for the following.
B1: CE115HA000 N31S (antibody, human IgG1, kappa, L234A L235A, N297A, name in Kabat numbering)
heavy: QVQLVESGGGVVQPGRSLRLSCAASGFTFSSAWMHWVRQAPGKGLEWVAQIKAKSNNYATYYAESVKGRFTISRDDSKNSLYLQMNSLKTEDTAVYYCRYVHYGAYYGVDAWGQGTTVTVSSASTKGPSVFPLAPSSKSTSGGTAALGCLVKDYFPEPVTVSWNSGALTSGVHTFPAVLQSSGLYSLSSVVTVPSSSLGTQTYICNVNHKPSNTKVDKKVEPKSCDKTHTCPPCPAPEAAGGPSVFLFPPKPKDTLMISRTPEVTCVVVDVSHEDPEVKFNWYVDGVEVHNAKTKPREEQYASTYRVVSVLTVLHQDWLNGKEYKCKVSNKALPAPIEKTISKAKGQPREPQVYTLPPSRCELTKNQVSLSCAVKGFYPSDIAVEWESNGQPENNYKTTPPVLDSDGSFFLVSKLTVDKSRWQQGNVFSCSVMHEALHNHYTQKSLSLSPDYKDDDDK
chain: EPKSSDKTHTCPPCPAPELLGGPSVFLFPPKPKDTLMISRTPEVTCVVVDVSHEDPEVKFNWYVDGVEVHNAKTKPREEQYNSTYRVVSVLTVLHQDWLNGKEYKCKVSNKALPAPIEKTISKAKGQPREPQVCTLPPSRDELTKNQVSLWCLVKGFYPSDIAVEWESNGQPENNYKTTPPVLDSDGSFFLYSKLTVDKSRWQQGNVFSCSVMHEALHNRYTQKSLSLSP
light: DIVMTQSPLSLPVTPGEPASISCRSSQSLVHSNRNTYLHWYQQKPGQAPRLLIYKVSNRFSGVPDRFSGSGSGTDFTLKISRVEAEDVGVYYCGQGTQVPYTFGQGTKLEIKRTVAAPSVFIFPPSDEQLKSGTASVVCLLNNFYPREAKVQWKVDNALQSGNSQESVTEQDSKDSTYSLSSTLTLSKADYEKHKVYACEVTHQGLSSPVTKSFNRGEC
notes: one-arm antibody
B2: CE115HA000 Q50E (antibody, human IgG1, kappa, L234A L235A, N297A, name in Kabat numbering)
heavy: B1 heavy with S31N, Q50E
chain: B1 chain
light: B1 light
notes: one-arm antibody
B3: CE115HA000 N54D (antibody, human IgG1, kappa, L234A L235A, N297A, name in Kabat numbering)
heavy: B1 heavy with S31N, N57D
chain: B1 chain
light: B1 light
notes: one-arm antibody
B4: CE115HA000 Q50A (antibody, human IgG1, kappa, L234A L235A, N297A, name in Kabat numbering)
heavy: B1 heavy with S31N, Q50A
chain: B1 chain
light: B1 light
notes: one-arm antibody
B5: CE115HA000 Q50I (antibody, human IgG1, kappa, L234A L235A, N297A, name in Kabat numbering)
heavy: B1 heavy with S31N, Q50I
chain: B1 chain
light: B1 light
notes: one-arm antibody
B6: CE115HA000 N53G (antibody, human IgG1, kappa, L234A L235A, N297A, name in Kabat numbering)
heavy: B1 heavy with S31N, N56G
chain: B1 chain
light: B1 light
notes: one-arm antibody
B7: CE115HA000 N31W (antibody, human IgG1, kappa, L234A L235A, N297A, name in Kabat numbering)
heavy: B1 heavy with S31W
chain: B1 chain
light: B1 light
notes: one-arm antibody
B8: CE115HA000 Q50S (antibody, human IgG1, kappa, L234A L235A, N297A, name in Kabat numbering)
heavy: B1 heavy with S31N, Q50S
chain: B1 chain
light: B1 light
notes: one-arm antibody
B9: CE115HA000 Q50K (antibody, human IgG1, kappa, L234A L235A, N297A, name in Kabat numbering)
heavy: B1 heavy with S31N, Q50K
chain: B1 chain
light: B1 light
notes: one-arm antibody
B10: CE115HA000 N54K (antibody, human IgG1, kappa, L234A L235A, N297A, name in Kabat numbering)
heavy: B1 heavy with S31N, N57K
chain: B1 chain
light: B1 light
notes: one-arm antibody
B11: CE115HA000 N53A (antibody, human IgG1, kappa, L234A L235A, N297A, name in Kabat numbering)
heavy: B1 heavy with S31N, N56A
chain: B1 chain
light: B1 light
notes: one-arm antibody
B12: CE115HA000 N54G (antibody, human IgG1, kappa, L234A L235A, N297A, name in Kabat numbering)
heavy: B1 heavy with S31N, N57G
chain: B1 chain
light: B1 light
notes: one-arm antibody
B13: CE115HA000 N53I (antibody, human IgG1, kappa, L234A L235A, N297A, name in Kabat numbering)
heavy: B1 heavy with S31N, N56I
chain: B1 chain
light: B1 light
notes: one-arm antibody
B14: CE115HA000 N53H (antibody, human IgG1, kappa, L234A L235A, N297A, name in Kabat numbering)
heavy: B1 heavy with S31N, N56H
chain: B1 chain
light: B1 light
notes: one-arm antibody
B15: CE115HA000 N53D (antibody, human IgG1, kappa, L234A L235A, N297A, name in Kabat numbering)
heavy: B1 heavy with S31N, N56D
chain: B1 chain
light: B1 light
notes: one-arm antibody
B16: CE115HA000 Q50L (antibody, human IgG1, kappa, L234A L235A, N297A, name in Kabat numbering)
heavy: B1 heavy with S31N, Q50L
chain: B1 chain
light: B1 light
notes: one-arm antibody
B17: CE115HA000 N53K (antibody, human IgG1, kappa, L234A L235A, N297A, name in Kabat numbering)
heavy: B1 heavy with S31N, N56K
chain: B1 chain
light: B1 light
notes: one-arm antibody
B18: CE115HA000 Q50D (antibody, human IgG1, kappa, L234A L235A, N297A, name in Kabat numbering)
heavy: B1 heavy with S31N, Q50D
chain: B1 chain
light: B1 light
notes: one-arm antibody
B19: CE115HA000 N54Y (antibody, human IgG1, kappa, L234A L235A, N297A, name in Kabat numbering)
heavy: B1 heavy with S31N, N57Y
chain: B1 chain
light: B1 light
notes: one-arm antibody
B20: CE115HA000 N54Q (antibody, human IgG1, kappa, L234A L235A, N297A, name in Kabat numbering)
heavy: B1 heavy with S31N, N57Q
chain: B1 chain
light: B1 light
notes: one-arm antibody
B21: CE115HA000 N54L (antibody, human IgG1, kappa, L234A L235A, N297A, name in Kabat numbering)
heavy: B1 heavy with S31N, N57L
chain: B1 chain
light: B1 light
notes: one-arm antibody
B22: CE115HA000 N53S (antibody, human IgG1, kappa, L234A L235A, N297A, name in Kabat numbering)
heavy: B1 heavy with S31N, N56S
chain: B1 chain
light: B1 light
notes: one-arm antibody
B23: CE115HA000 N54S (antibody, human IgG1, kappa, L234A L235A, N297A, name in Kabat numbering)
heavy: B1 heavy with S31N, N57S
chain: B1 chain
light: B1 light
notes: one-arm antibody
B24: CE115HA000 Q50Y (antibody, human IgG1, kappa, L234A L235A, N297A, name in Kabat numbering)
heavy: B1 heavy with S31N, Q50Y
chain: B1 chain
light: B1 light
notes: one-arm antibody
B25: CE115HA000 N53Y (antibody, human IgG1, kappa, L234A L235A, N297A, name in Kabat numbering)
heavy: B1 heavy with S31N, N56Y
chain: B1 chain
light: B1 light
notes: one-arm antibody
B26: CE115HA000 N76S (antibody, human IgG1, kappa, L234A L235A, N297A, name in Kabat numbering)
heavy: B1 heavy with S31N, N79S
chain: B1 chain
light: B1 light
notes: one-arm antibody
B27: CE115HA000 N54F (antibody, human IgG1, kappa, L234A L235A, N297A, name in Kabat numbering)
heavy: B1 heavy with S31N, N57F
chain: B1 chain
light: B1 light
notes: one-arm antibody
B28: CE115HA000 N53Q (antibody, human IgG1, kappa, L234A L235A, N297A, name in Kabat numbering)
heavy: B1 heavy with S31N, N56Q
chain: B1 chain
light: B1 light
notes: one-arm antibody
B29: CE115HA000 N82aD (antibody, human IgG1, kappa, L234A L235A, N297A, name in Kabat numbering)
heavy: B1 heavy with S31N, N86D
chain: B1 chain
light: B1 light
notes: one-arm antibody
B30: CE115HA000 N53W (antibody, human IgG1, kappa, L234A L235A, N297A, name in Kabat numbering)
heavy: B1 heavy with S31N, N56W
chain: B1 chain
light: B1 light
notes: one-arm antibody
B31: CE115HA000 N54A (antibody, human IgG1, kappa, L234A L235A, N297A, name in Kabat numbering)
heavy: B1 heavy with S31N, N57A
chain: B1 chain
light: B1 light
notes: one-arm antibody
B32: CE115HA000 N31Y (antibody, human IgG1, kappa, L234A L235A, N297A, name in Kabat numbering)
heavy: B1 heavy with S31Y
chain: B1 chain
light: B1 light
notes: one-arm antibody

From patent US20210388087A1 (Chugai, published 2021) come the findings set out here.

Changes are numbered by the printed parent chain.

T1 sequence (P07766 23-126): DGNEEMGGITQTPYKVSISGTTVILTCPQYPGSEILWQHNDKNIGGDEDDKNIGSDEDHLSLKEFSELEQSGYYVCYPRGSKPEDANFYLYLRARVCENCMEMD

The experiment concerns the target T1, CD3 epsilon homodimer protein (UniProt P07766 23-126).
T1 construct: also called CD3 (CD3 epsilon)
Nature of the experiment: SPR, CD3 epsilon homodimer on chip, one-arm antibody as analyte.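 Further: surface plasmon resonance at 25 °C with CD3 epsilon homodimer amine-coupled to a CM4 sensor chip, antibody injected as analyte, HBS-EP+ as running buffer.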
For the molecule B1, the “KD ratio (KD of CE115HA000/KD of altered form)” value (“KD ratio” for short) worked out at 0.67. The same measure for B2: 16700. As to B3, the “KD ratio” value came to 0.59. On to B4, for which the “KD ratio” value worked out at 22.6. B5: the “KD ratio” value was determined as 1.21. Regarding B6, the “KD ratio” value stood at 0.95. Next, B7: 1.07; B8: 47.4; B9: 0.71. The same measure for B10: 0.82; for B11: 0.55. B12: the “KD ratio” value is 0.84. The same measure for B13: 0.57; for B14: 0.55. Take B15: the “KD ratio” value was 0.55. As for B16, the “KD ratio” value was found to be 1.41. Next, B17: 0.79. For B18, the “KD ratio” value came to 75.4. Next, B19: 1.03; B20: 0.8.

B21: the “KD ratio” value turned out to be 0.91.

B22: the “KD ratio” value was found to be 0.59. Take B23: the “KD ratio” value worked out at 0.57. The same measure for B24: 49.1; for B25: 0.94. Next, B26: 0.84; B27: 0.97; B28: 1.05.

For the molecule B29, the “KD ratio” value was 0.56. The same measure for B30: 0.69; for B31: 0.58.

On to B32, for which the “KD ratio” value was 1.1.
